Test [1] concerns the target T1, histidine-tagged soluble extracellular domain of human transferrin receptor 1 (sTfR1) from BHK cells (human, UniProt P02786).
T1 construct: also called hTfR1; sTfR1-His
The test can be described thus: BLI. Conditions: both partners purified.

The target of test [2] is T1, histidine-tagged soluble extracellular …. The test can be described thus: ELISA. Conditions: both partners purified. For orientation: An ELISA detects its analyte on a solid surface through an enzyme-linked reagent.

“And” between values parts separate entries of the source, which are not always exact repeats. Equal values may be shown once.

T1 sequence (P02786 89-760): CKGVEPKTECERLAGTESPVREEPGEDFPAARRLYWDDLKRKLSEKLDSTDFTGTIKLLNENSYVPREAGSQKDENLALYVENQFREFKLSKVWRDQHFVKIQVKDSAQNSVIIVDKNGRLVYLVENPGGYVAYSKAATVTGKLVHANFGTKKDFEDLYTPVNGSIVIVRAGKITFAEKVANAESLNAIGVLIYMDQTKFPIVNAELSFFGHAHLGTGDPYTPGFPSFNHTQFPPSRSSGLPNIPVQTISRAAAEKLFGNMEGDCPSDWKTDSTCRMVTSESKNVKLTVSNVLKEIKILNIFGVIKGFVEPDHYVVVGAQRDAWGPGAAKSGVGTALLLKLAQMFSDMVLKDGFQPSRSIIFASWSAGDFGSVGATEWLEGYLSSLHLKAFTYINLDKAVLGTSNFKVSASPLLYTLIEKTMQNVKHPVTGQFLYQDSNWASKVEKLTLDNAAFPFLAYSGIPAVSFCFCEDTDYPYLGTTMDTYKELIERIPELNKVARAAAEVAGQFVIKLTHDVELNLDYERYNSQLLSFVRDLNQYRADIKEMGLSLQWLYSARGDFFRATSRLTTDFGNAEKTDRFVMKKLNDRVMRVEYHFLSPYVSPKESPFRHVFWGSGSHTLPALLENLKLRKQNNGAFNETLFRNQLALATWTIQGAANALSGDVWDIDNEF

B1: OKT9 antigen binding fragment (OKT9-Fab) (Fab, V domains shown)
VH: QIQLQQSGPELVKPGTSMNISCKASGYTFTNYYMHWVRQRPGQGLEWIGWIYPGDGNTHYNEKFKGKTTLTADTSSITAYMLLSSLTSEDSAVYFCARDNSGYVGFPYWGQGTLVTVSA
VL: DIVMTQSPSSLTVTAGERVTMSCKSSQSLFNSANQENYLTWYQQRPGQPPKLLIYWASTRDSGVPDRFTGSGSGTDFTLTISSVQAEDLAVYYCQNDYSYPLTFGAGTKLELK
notes: also called Fab OKT9; OKT9 variable region
For orientation: Kd means the equilibrium constant for the complex coming apart. A higher Kd goes with lower affinity. Broadly, the koff is the rate constant with which the complex falls apart. A lower koff goes with slow dissociation. By EC50 is commonly meant the concentration that produces a half-maximal response. A high value points to weaker potency. As to B1, in test [1], the dissociation constant Kd is 4.9 nM and 4.78 nM and 4.76 nM and 4.82 nM; the koff is 0.0012 s⁻¹ and 0.00125 s⁻¹ and 0.00114 s⁻¹. Besides, in test [2], the EC50 was 3.69 nM and ~3.66 nM.

B2: murine monoclonal antibody OKT9 (full-length IgG1) (antibody, V domains shown)
VH: QIQLQQSGPELVKPGTSMNISCKASGYTFTNYYMHWVRQRPGQGLEWIGWIYPGDGNTHYNEKFKGKTTLTADTSSITAYMLLSSLTSEDSAVYFCARDNSGYVGFPYWGQGTLVTVSA
VL: DIVMTQSPSSLTVTAGERVTMSCKSSQSLFNSANQENYLTWYQQRPGQPPKLLIYWASTRDSGVPDRFTGSGSGTDFTLTISSVQAEDLAVYYCQNDYSYPLTFGAGTKLELK
notes: also called full-length OKT9
Consider B2, for which the EC50 in test [2] is 0.411 nM.

The record behind these values is publication PMC8354235 (Journal of Virology, 2021).
